Each block holds one binder with its values, some of them ahead of it. Positions of bridges follow the written chain, without caps; N, C: chain ends. Non-standard residues stand in square brackets, D forms with d. *: point of attachment. Phe(4-Cl) = N[C@@H](Cc1ccc(Cl)cc1)C(=O)O; Nicotinoyl = O=C(c1cccnc1)*
What was measured:
Assay in all cases: cell-based or functional assay
[1] = molecular target: somatostatin receptor type 2 (SSTR2) (UniProt P30874 1-369)
[2] = molecular target: somatostatin receptor SSTR3 (UniProt P32745 1-418)
Chain of somatostatin receptor SSTR3 (P32745 whole entry): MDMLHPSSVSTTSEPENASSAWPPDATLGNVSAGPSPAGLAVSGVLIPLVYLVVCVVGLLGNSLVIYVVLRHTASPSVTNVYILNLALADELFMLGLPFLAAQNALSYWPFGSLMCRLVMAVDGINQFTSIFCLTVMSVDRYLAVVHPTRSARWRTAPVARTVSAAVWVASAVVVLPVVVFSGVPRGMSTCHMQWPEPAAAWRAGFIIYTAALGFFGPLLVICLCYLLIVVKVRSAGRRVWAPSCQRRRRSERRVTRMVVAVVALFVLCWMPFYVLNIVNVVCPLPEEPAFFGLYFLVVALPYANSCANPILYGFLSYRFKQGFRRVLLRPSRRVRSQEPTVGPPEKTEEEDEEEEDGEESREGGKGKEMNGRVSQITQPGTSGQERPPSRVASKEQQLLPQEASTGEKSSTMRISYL

[3] = molecular target: somatostatin receptor SSTR1 (UniProt P30872 1-391)
Chain of somatostatin receptor SSTR1 (P30872 whole entry): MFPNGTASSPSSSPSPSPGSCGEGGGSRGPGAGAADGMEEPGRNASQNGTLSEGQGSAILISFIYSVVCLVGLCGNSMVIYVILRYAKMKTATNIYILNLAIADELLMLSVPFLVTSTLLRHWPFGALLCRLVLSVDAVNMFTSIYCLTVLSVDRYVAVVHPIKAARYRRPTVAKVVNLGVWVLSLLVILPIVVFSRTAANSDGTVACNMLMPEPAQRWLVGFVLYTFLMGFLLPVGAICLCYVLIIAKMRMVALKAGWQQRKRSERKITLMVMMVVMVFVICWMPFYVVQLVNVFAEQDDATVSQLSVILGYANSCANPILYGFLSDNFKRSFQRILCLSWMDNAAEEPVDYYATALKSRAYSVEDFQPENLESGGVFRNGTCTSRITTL

[4] = molecular target: somatostatin receptor SSTR4 (UniProt P31391 1-388)
Chain of somatostatin receptor SSTR4 (P31391 whole entry): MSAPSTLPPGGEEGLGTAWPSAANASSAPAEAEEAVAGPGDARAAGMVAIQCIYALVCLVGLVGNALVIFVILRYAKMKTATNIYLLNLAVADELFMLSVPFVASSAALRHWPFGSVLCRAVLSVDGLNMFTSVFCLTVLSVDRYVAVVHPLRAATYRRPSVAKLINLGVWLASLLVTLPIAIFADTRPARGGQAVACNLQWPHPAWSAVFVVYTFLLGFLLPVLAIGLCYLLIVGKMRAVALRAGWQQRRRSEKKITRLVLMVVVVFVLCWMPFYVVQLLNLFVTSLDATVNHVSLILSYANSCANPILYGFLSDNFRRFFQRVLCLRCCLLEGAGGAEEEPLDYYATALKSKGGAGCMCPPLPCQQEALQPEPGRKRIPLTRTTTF

[5] = molecular target: somatostatin receptor SSTR5 (UniProt P35346 1-364)
Chain of somatostatin receptor SSTR5 (P35346 whole entry): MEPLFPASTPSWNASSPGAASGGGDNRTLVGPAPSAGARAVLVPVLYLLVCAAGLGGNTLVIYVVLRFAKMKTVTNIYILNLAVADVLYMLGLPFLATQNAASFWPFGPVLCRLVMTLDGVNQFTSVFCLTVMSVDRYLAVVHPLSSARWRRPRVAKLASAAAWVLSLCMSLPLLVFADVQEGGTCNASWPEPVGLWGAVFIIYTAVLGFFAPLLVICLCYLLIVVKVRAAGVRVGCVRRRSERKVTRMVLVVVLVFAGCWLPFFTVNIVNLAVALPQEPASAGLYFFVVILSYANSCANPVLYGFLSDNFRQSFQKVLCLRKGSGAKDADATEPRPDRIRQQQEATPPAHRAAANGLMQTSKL

Chain of somatostatin receptor type 2 (SSTR2) (P30874 whole entry): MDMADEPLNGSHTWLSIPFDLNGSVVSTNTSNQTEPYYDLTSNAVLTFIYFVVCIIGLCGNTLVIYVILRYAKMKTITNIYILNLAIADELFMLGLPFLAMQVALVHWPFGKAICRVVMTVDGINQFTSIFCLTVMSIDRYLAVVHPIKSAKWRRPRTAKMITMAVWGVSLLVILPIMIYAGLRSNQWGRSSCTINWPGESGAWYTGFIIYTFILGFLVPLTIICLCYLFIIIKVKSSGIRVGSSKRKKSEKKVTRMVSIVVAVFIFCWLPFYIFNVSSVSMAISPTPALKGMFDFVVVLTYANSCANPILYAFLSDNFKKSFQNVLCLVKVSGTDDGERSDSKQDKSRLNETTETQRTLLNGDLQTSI

B2: Compound 12: H-Cpa-cyclo[D-Cys-Tyr-D-Phe(4-n-pentylamino)-Lys-Thr-Cys]-D-Tyr-NH2 (peptide)
peptide: XXYXKTCX
HELM: PEPTIDE1{[N[C@@H](Cc1ccc(Cl)cc1)C(=O)[*:2]].[dC].Y.[CCCCCNc1ccc(C[C@@H](N[*:1])C(=O)[*:2])cc1].K.T.C.[dY].[am]}$PEPTIDE1,PEPTIDE1,2:R3-7:R3$$$V2.0
SMILES: CCCCCNc1ccc(C[C@H]2NC(=O)[C@H](Cc3ccc(O)cc3)NC(=O)[C@H](NC(=O)[C@@H](N)Cc3ccc(Cl)cc3)CSSC[C@@H](C(=O)N[C@H](Cc3ccc(O)cc3)C(N)=O)NC(=O)[C@H]([C@@H](C)O)NC(=O)[C@H](CCCCN)NC2=O)cc1
IC50 (PathHunter β-Arrestin, antagonist mode) [3]: > 1000 nM
IC50 (PathHunter β-Arrestin, antagonist mode) [1]: 17 nM
IC50 (PathHunter β-Arrestin, antagonist mode) [4]: > 1000 nM
IC50 (PathHunter β-Arrestin, antagonist mode) [5]: > 1000 nM
IC50 (PathHunter β-Arrestin, antagonist mode) [2]: > 1000 nM

B5: Compound 20: H-Cpa-cyclo[DCys-Tyr-D-4-(Glu)Aph-Lys-Thr-Cys]-DTyr-NH2 (peptide)
peptide: H-[Phe(4-Cl)][dC]Y[dAph(Glu)]KTC[dY]-NH2
modifications: disulfide 2-7
IC50 (PathHunter β-Arrestin, antagonist mode) [1]: 924 nM
IC50 (PathHunter β-Arrestin, antagonist mode) [2]: > 1000 nM

B8: Compound 1: H-Cpa-cyclo[D-Cys-Tyr-D-Cit-Lys-Thr-Cys]-D-Tyr-NH2 (peptide)
peptide: XXYXKTCX
HELM: PEPTIDE1{[N[C@@H](Cc1ccc(Cl)cc1)C(=O)[*:2]].[dC].Y.[NC(=O)NCCC[C@@H](N[*:1])C(=O)[*:2]].K.T.C.[dY].[am]}$PEPTIDE1,PEPTIDE1,2:R3-7:R3$$$V2.0
SMILES: C[C@@H](O)[C@@H]1NC(=O)[C@H](CCCCN)NC(=O)[C@@H](CCCNC(N)=O)NC(=O)[C@H](Cc2ccc(O)cc2)NC(=O)[C@H](NC(=O)[C@@H](N)Cc2ccc(Cl)cc2)CSSC[C@@H](C(=O)N[C@H](Cc2ccc(O)cc2)C(N)=O)NC1=O
IC50 (PathHunter β-Arrestin, antagonist mode) [3]: > 1000 nM
IC50 (PathHunter β-Arrestin, antagonist mode) [1]: 34 nM
IC50 (PathHunter β-Arrestin, antagonist mode) [4]: > 1000 nM
IC50 (PathHunter β-Arrestin, antagonist mode) [5]: > 1000 nM
IC50 (PathHunter β-Arrestin, antagonist mode) [2]: > 1000 nM

B10: Compound 17: H-Cpa-cyclo[DCys-Tyr-D-4-(Lys)Aph-Lys-Thr-Cys]-DTyr-NH2 (peptide)
peptide: H-[Phe(4-Cl)][dC]Y[dAph(Lys)]KTC[dY]-NH2
modifications: disulfide 2-7
IC50 (PathHunter β-Arrestin, antagonist mode) [1]: > 1000 nM
IC50 (PathHunter β-Arrestin, antagonist mode) [2]: > 1000 nM

B12: Compound 11: H-Cpa-cyclo[DCys-Tyr-D-4-(2-(4-morpholinyl)ethyl)Aph-Lys-Thr-Cys]-DTyr-NH2 (peptide)
peptide: H-[Phe(4-Cl)][dC]Y[dAph(2-(4-morpholinyl)ethyl)]KTC[dY]-NH2
modifications: disulfide 2-7
IC50 (PathHunter β-Arrestin, antagonist mode) [1]: 243 nM
IC50 (PathHunter β-Arrestin, antagonist mode) [2]: > 1000 nM

B13: Compound 9: H-Cpa-cyclo[DCys-Tyr-D-4-(Gly-Ac)Aph-Lys-Thr-Cys]-DTyr-NH2 (peptide)
peptide: XXYXKTCX
HELM: PEPTIDE1{[N[C@@H](Cc1ccc(Cl)cc1)C(=O)[*:2]].[dC].Y.[O=C([C@@H](Cc1ccc(N[*:3])cc1)N[*:1])[*:2]].K.T.C.[dY].[am]}|PEPTIDE2{[ac].G}$PEPTIDE1,PEPTIDE2,4:R3-2:R2|PEPTIDE1,PEPTIDE1,2:R3-7:R3$$$V2.0
SMILES: CC(=O)NCC(=O)Nc1ccc(C[C@H]2NC(=O)[C@H](Cc3ccc(O)cc3)NC(=O)[C@H](NC(=O)[C@@H](N)Cc3ccc(Cl)cc3)CSSC[C@@H](C(=O)N[C@H](Cc3ccc(O)cc3)C(N)=O)NC(=O)[C@H]([C@@H](C)O)NC(=O)[C@H](CCCCN)NC2=O)cc1
IC50 (PathHunter β-Arrestin, antagonist mode) [1]: 104 nM
IC50 (PathHunter β-Arrestin, antagonist mode) [2]: > 1000 nM

B15: Compound 21: H-Cpa-cyclo[DCys-Tyr-D-4-(Gln)Aph-Lys-Thr-Cys]-DTyr-NH2 (peptide)
peptide: H-[Phe(4-Cl)][dC]Y[dAph(Gln)]KTC[dY]-NH2
modifications: disulfide 2-7
IC50 (PathHunter β-Arrestin, antagonist mode) [1]: > 1000 nM
IC50 (PathHunter β-Arrestin, antagonist mode) [2]: > 1000 nM

B17: Compound 19: H-Cpa-cyclo[DCys-Tyr-D-4-(Asn)Aph-Lys-Thr-Cys]-DTyr-NH2 (peptide)
peptide: H-[Phe(4-Cl)][dC]Y[dAph(Asn)]KTC[dY]-NH2
modifications: disulfide 2-7
IC50 (PathHunter β-Arrestin, antagonist mode) [1]: > 1000 nM
IC50 (PathHunter β-Arrestin, antagonist mode) [2]: > 1000 nM

B18: Compound 18: H-Cpa-cyclo[DCys-Tyr-D-4-(Asp)Aph-Lys-Thr-Cys]-DTyr-NH2 (peptide)
peptide: H-[Phe(4-Cl)][dC]Y[dAph(Asp)]KTC[dY]-NH2
modifications: disulfide 2-7
IC50 (PathHunter β-Arrestin, antagonist mode) [1]: > 1000 nM
IC50 (PathHunter β-Arrestin, antagonist mode) [2]: > 1000 nM

B19: Compound 22: H-Cpa-cyclo[DCys-Tyr-D-4-(Cit)Aph-Lys-Thr-Cys]-DTyr-NH2 (peptide)
peptide: H-[Phe(4-Cl)][dC]Y[dAph(Cit)]KTC[dY]-NH2
modifications: disulfide 2-7
IC50 (PathHunter β-Arrestin, antagonist mode) [1]: 417 nM
IC50 (PathHunter β-Arrestin, antagonist mode) [2]: > 1000 nM

Other lines, results leading:

IC50 (PathHunter β-Arrestin, antagonist mode) [1]: 181 nM
IC50 (PathHunter β-Arrestin, antagonist mode) [2]: > 1000 nM
B1: Compound 2: H-Cpa-cyclo[DCys-Tyr-DHoCit-Lys-Thr-Cys]-DTyr-NH2 (peptide)
peptide: H-[Phe(4-Cl)][dC]Y[dHoCit]KTC[dY]-NH2
modifications: disulfide 2-7

IC50 (PathHunter β-Arrestin, antagonist mode) [1]: 234 nM
IC50 (PathHunter β-Arrestin, antagonist mode) [2]: > 1000 nM
B3: Compound 16: H-Cpa-cyclo[DCys-Tyr-D-4-(Ser)Aph-Lys-Thr-Cys]-DTyr-NH2 (peptide)
peptide: H-[Phe(4-Cl)][dC]Y[dAph(Ser)]KTC[dY]-NH2
modifications: disulfide 2-7

IC50 (PathHunter β-Arrestin, antagonist mode) [1]: 334 nM
IC50 (PathHunter β-Arrestin, antagonist mode) [2]: > 1000 nM
B4: Compound 13: H-Cpa-cyclo[DCys-Tyr-D-(2-(4-morpholinyl)ethyl)Tyr-Lys-Thr-Cys]-DTyr-NH2 (peptide)
peptide: H-[Phe(4-Cl)][dC]Y[dTyr(O-2-(4-morpholinyl)ethyl)]KTC[dY]-NH2
modifications: disulfide 2-7

IC50 (PathHunter β-Arrestin, antagonist mode) [1]: 458 nM
IC50 (PathHunter β-Arrestin, antagonist mode) [2]: > 1000 nM
B6: Compound 23: H-Cpa-cyclo[DCys-Tyr-D-4-(Val)Aph-Lys-Thr-Cys]-DTyr-NH2 (peptide)
peptide: H-[Phe(4-Cl)][dC]Y[dAph(Val)]KTC[dY]-NH2
modifications: disulfide 2-7

IC50 (PathHunter β-Arrestin, antagonist mode) [3]: > 1000 nM
IC50 (PathHunter β-Arrestin, antagonist mode) [1]: 21 nM
IC50 (PathHunter β-Arrestin, antagonist mode) [4]: > 1000 nM
IC50 (PathHunter β-Arrestin, antagonist mode) [5]: > 1000 nM
IC50 (PathHunter β-Arrestin, antagonist mode) [2]: > 1000 nM
B7: Compound 14: H-Cpa-cyclo[DCys-Tyr-D-4-(benzenesulfonyl)Aph-Lys-Thr-Cys]-DTyr-NH2 (peptide)
peptide: XXYXKTCX
HELM: PEPTIDE1{[N[C@@H](Cc1ccc(Cl)cc1)C(=O)[*:2]].[dC].Y.[O=C([C@@H](Cc1ccc(NS(=O)(=O)c2ccccc2)cc1)N[*:1])[*:2]].K.T.C.[dY].[am]}$PEPTIDE1,PEPTIDE1,2:R3-7:R3$$$V2.0
SMILES: C[C@@H](O)[C@@H]1NC(=O)[C@H](CCCCN)NC(=O)[C@@H](Cc2ccc(NS(=O)(=O)c3ccccc3)cc2)NC(=O)[C@H](Cc2ccc(O)cc2)NC(=O)[C@H](NC(=O)[C@@H](N)Cc2ccc(Cl)cc2)CSSC[C@@H](C(=O)N[C@H](Cc2ccc(O)cc2)C(N)=O)NC1=O

IC50 (PathHunter β-Arrestin, antagonist mode) [1]: 251 nM
IC50 (PathHunter β-Arrestin, antagonist mode) [2]: > 1000 nM
B9: Compound 3: H-Cpa-cyclo[DCys-Tyr-D-(Nε-nicotinoyl)Lys-Lys-Thr-Cys]-DTyr-NH2 (peptide)
peptide: H-[Phe(4-Cl)][dC]Y[dK](Nicotinoyl)KTC[dY]-NH2
modifications: disulfide 2-7
SMILES: C[C@@H](O)[C@@H]1NC(=O)[C@H](CCCCN)NC(=O)[C@@H](CCCCNC(=O)c2cccnc2)NC(=O)[C@H](Cc2ccc(O)cc2)NC(=O)[C@H](NC(=O)[C@@H](N)Cc2ccc(Cl)cc2)CSSC[C@@H](C(=O)N[C@H](Cc2ccc(O)cc2)C(N)=O)NC1=O

IC50 (PathHunter β-Arrestin, antagonist mode) [3]: > 1000 nM
IC50 (PathHunter β-Arrestin, antagonist mode) [1]: 31 nM
IC50 (PathHunter β-Arrestin, antagonist mode) [4]: > 1000 nM
IC50 (PathHunter β-Arrestin, antagonist mode) [5]: > 1000 nM
IC50 (PathHunter β-Arrestin, antagonist mode) [2]: > 1000 nM
B11: Compound 7: H-Cpa-cyclo[DCys-Tyr-D-(4-ureidomethyl)Phe-Lys-Thr-Cys]-DTyr-NH2 (peptide)
peptide: XXYXKTCX
HELM: PEPTIDE1{[N[C@@H](Cc1ccc(Cl)cc1)C(=O)[*:2]].[dC].Y.[NC(=O)NCc1ccc(C[C@@H](N[*:1])C(=O)[*:2])cc1].K.T.C.[dY].[am]}$PEPTIDE1,PEPTIDE1,2:R3-7:R3$$$V2.0
SMILES: C[C@@H](O)[C@@H]1NC(=O)[C@H](CCCCN)NC(=O)[C@@H](Cc2ccc(CNC(N)=O)cc2)NC(=O)[C@H](Cc2ccc(O)cc2)NC(=O)[C@H](NC(=O)[C@@H](N)Cc2ccc(Cl)cc2)CSSC[C@@H](C(=O)N[C@H](Cc2ccc(O)cc2)C(N)=O)NC1=O

IC50 (PathHunter β-Arrestin, antagonist mode) [3]: > 1000 nM
IC50 (PathHunter β-Arrestin, antagonist mode) [1]: 17 nM
IC50 (PathHunter β-Arrestin, antagonist mode) [4]: > 1000 nM
IC50 (PathHunter β-Arrestin, antagonist mode) [5]: > 1000 nM
IC50 (PathHunter β-Arrestin, antagonist mode) [2]: > 1000 nM
B14: Compound 4: H-Cpa-cyclo[DCys-Tyr-D-(4-carbamoyl)Phe-Lys-Thr-Cys]-DTyr-NH2 (peptide)
peptide: XXYXKTCX
HELM: PEPTIDE1{[N[C@@H](Cc1ccc(Cl)cc1)C(=O)[*:2]].[dC].Y.[NC(=O)c1ccc(C[C@@H](N[*:1])C(=O)[*:2])cc1].K.T.C.[dY].[am]}$PEPTIDE1,PEPTIDE1,2:R3-7:R3$$$V2.0
SMILES: C[C@@H](O)[C@@H]1NC(=O)[C@H](CCCCN)NC(=O)[C@@H](Cc2ccc(C(N)=O)cc2)NC(=O)[C@H](Cc2ccc(O)cc2)NC(=O)[C@H](NC(=O)[C@@H](N)Cc2ccc(Cl)cc2)CSSC[C@@H](C(=O)N[C@H](Cc2ccc(O)cc2)C(N)=O)NC1=O

IC50 (PathHunter β-Arrestin, antagonist mode) [1]: > 1000 nM
IC50 (PathHunter β-Arrestin, antagonist mode) [2]: > 1000 nM
B16: Compound 10: H-Cpa-cyclo[DCys-Tyr-D-4-(Pro)Aph-Lys-Thr-Cys]-DTyr-NH2 (peptide)
peptide: H-[Phe(4-Cl)][dC]Y[dAph(Pro)]KTC[dY]-NH2
modifications: disulfide 2-7

Reference: patent US20190040102A1 (CDRD VENTURES, published 2019)
